This passage reports normalised SPOT signal, Boehringer light units (BLU); mean over the file's lines of this peptide results from PMC314469, “Protein Interaction Networks by Proteome Peptide Scanning” (PLoS Biology, 2004).

Assay [1] addresses endophilin SH3 (SH3G2_HUMAN), Q99962. Nature of the assay: SPOT array.
The target of assay [2] is T1, amphyphisin SH3 (AMPH_HUMAN), P49418.
T1 chain: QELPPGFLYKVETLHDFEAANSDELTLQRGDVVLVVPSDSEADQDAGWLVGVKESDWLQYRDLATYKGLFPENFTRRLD
Nature of the assay: SPOT array.

B1: Q96IB4 40-53 (peptide)
chain: MTVAIRRPGVPGAP
With B1, the normalised SPOT signal, Boehringer light units (BLU); mean over the file's lines of this peptide in assay [1] came to 80.3; in assay [2], 55.2.

B2: Q9BRN8 20-34 (peptide)
chain: MVPGPARPPGSSWD
On to B2, for which the figures for the normalised SPOT signal, Boehringer light units (BLU); mean over the file's lines of this peptide in assay [1] and in assay [2] were 33.6 and 45.4, respectively.

B3: Q13873 1-14 (peptide)
chain: MTSSLQRPWRVPWL
As to B3, the normalised SPOT signal, Boehringer light units (BLU); mean over the file's lines of this peptide is 227 in assay [1] and 506 in assay [2].

B4: P18146 321-334 (peptide)
chain: MRKYPNRPSKTPPH
In the case of B4, the normalised SPOT signal, Boehringer light units (BLU); mean over the file's lines of this peptide was 1570 in assay [1] and 222 in assay [2].

B5: P27708 1830-1843 (peptide)
chain: MTTTPERPRRGIPG
B5: the normalised SPOT signal, Boehringer light units (BLU); mean over the file's lines of this peptide was determined as 2030 in assay [1] and 9560 in assay [2].

B6: O94947 263-276 (peptide)
chain: MLLSPRRPTVEKRA
Regarding B6, the normalised SPOT signal, Boehringer light units (BLU); mean over the file's lines of this peptide in assay [1] amounted to 8300; in assay [2] it was 344.

B7: O75833 1-14 (peptide)
chain: MLLRPRRPPPLAPP
Consider B7, for which the values for the normalised SPOT signal, Boehringer light units (BLU); mean over the file's lines of this peptide in assay [1] and in assay [2] were 5190 and 2650, respectively.

B8: Q99654 1-14 (peptide)
chain: MSSAPRRPAKGADS
Consider B8, for which the figures for the normalised SPOT signal, Boehringer light units (BLU); mean over the file's lines of this peptide in assay [1] and in assay [2] were 222 and 178, respectively.

B9: Q96GZ7 12-25 (peptide)
chain: ARAALRRPLSGQAL
For the molecule B9, the normalised SPOT signal, Boehringer light units (BLU); mean over the file's lines of this peptide is 85.3 in assay [1] and 87.1 in assay [2].

B10: P25705 324-337 (peptide)
chain: MSLLLRRPPGREAY
With B10, the values for the normalised SPOT signal, Boehringer light units (BLU); mean over the file's lines of this peptide in assay [1] and in assay [2] were 63.4 and 15.9, respectively.

B11: Q96DH7 35-48 (peptide)
chain: MQFSIRRPKLPSSE
Turning to B11, the figures for the normalised SPOT signal, Boehringer light units (BLU); mean over the file's lines of this peptide in assay [1] and in assay [2] were 532 and 118, respectively.

B12: O95600 103-116 (peptide)
chain: MLQAPIRPPKPQSS
With B12, the normalised SPOT signal, Boehringer light units (BLU); mean over the file's lines of this peptide in assay [1] came out at 2740; in assay [2], 1050.

B13: Q9P2M8 940-953 (peptide)
chain: MSTPLRRPSASETV
B13: the results for the normalised SPOT signal, Boehringer light units (BLU); mean over the file's lines of this peptide in assay [1] and in assay [2] were 228 and 18.3, respectively.

B14: P10747 192-205 (peptide)
chain: MNMTPRRPGPTRKH
With B14, the normalised SPOT signal, Boehringer light units (BLU); mean over the file's lines of this peptide was found to be 2530 in assay [1] and 76.1 in assay [2].

B15: Q15428 237-251 (peptide)
chain: MNGLPPRPPLPESL
Take B15: the normalised SPOT signal, Boehringer light units (BLU); mean over the file's lines of this peptide was determined as 9000 in assay [1] and 58.1 in assay [2].
